# Patent publication US20090092971
# Target: active RhoA, P61586
# Sequence (P61586 1-190): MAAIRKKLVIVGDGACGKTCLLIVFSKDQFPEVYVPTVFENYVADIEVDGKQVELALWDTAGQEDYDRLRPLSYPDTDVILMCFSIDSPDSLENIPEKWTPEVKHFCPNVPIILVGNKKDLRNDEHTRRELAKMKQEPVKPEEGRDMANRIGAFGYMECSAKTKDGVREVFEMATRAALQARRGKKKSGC
protein,measurement,value
GEF-H1 (Rho guanine nucleotide exchange factor H1) (protein) MKEAKDARYTNGHLFTTISVSGMTMCYACNKSITAKEALICPTCNVTIHNRCKDTLANCTKVKQKQQKAALLKNNTALQSVSLRSKTTIRERPSSAIYPSDSFRQSLLGSRRGRSSLSLAKSVSTTNIAGHFNDESPLGLRRILSQSTDSLNMRNRTLSVESLIDEEVIYSELMSDFEMDEKDFAADSWSLAVDSSFLQQHKKEVMKQQDVIYELIQTELHHVRTLKIMTRLFRTGMLEELHLEPGVVQGLFPCVDELSDIHTRFLSQLLERRRQALCPGSTRNFVIHRLGDLLISQFSGPSAEQMCKTYSEFCSRHSKALKLYKELYARDKRFQQFIRKVTRPAVLKRHGVQECILLVTQRITKYPLLISRILQHSHGIEEERQDLTTALGLVKELLSNVDEGIYQLEKGARLQEIYNRMDPRAQTPVPGKGPFGREELLRRKLIHDGCLLWKTATGRFKDVLVLLMTDVLVFLQEKDQKYIFPTLDKPSVVSLQNLIVRDIANQEKGMFLISAAPPEMYEVHTASRDDRSTWIRVIQQSVRTCPSREDFPLIETEDEAYLRRIKMELQQKDRALVELLREKVGLFAEMTHFQAEEDGGSGMALPTLPRGLFRSESLESPRGERLLQDAIREVEGLKDLLVGPGVELLLTPREPALPLEPDSGGNTSPGVTANGEARTFNGSIELCRADSDSSQRDRNGNQLRSPQEEALQRLVNLYGLLHGLQAAVAQQDTLMEARFPEGPERREKLCRANSRDGEAGRAGAAPVAPEKQATELALLQRQHALLQEELRRCRRLGEERATEAGSLEARLRESEQARALLEREAEEARRQLAALGQTEPLPAEAPWARRPVDPRRRSLPAGDALYLSFNPPQPSRGTDRLDLPVTTRSVHRNFEDRERQELGSPEERLQDSSDPDTGSEEEGSSRLSPPHSPRDFTRMQDIPEETESRDGEAVASES,"RhoA activity (active RhoA pulled down with GST-Rhotekin-RBD, western blot)",the RhoA activity increased by at least 5 times
